Data: US20260242478A1 (published 2026)
Where no end group is shown, it is not given here.

B1: Phage-1351 (peptide)
peptide: TCAAGAHYPWPACL
notes: Clonal phage of the Peptide-92 library, tested as crude supernatant; not shown: fused to the pIII filament of the bacteriophage
B2: Phage-1348 (peptide)
peptide: SCSAGAAYYWPWCL
notes: as for B1
B3: Phage-1350 (peptide)
peptide: TCAAGATYLWPTCL
notes: as for B1
B4: Phage-1347 (peptide)
peptide: TCSAGAHYPWPICL
notes: as for B1
B5: Phage-1345 (peptide)
peptide: SCSAGAHYPWPQCF
notes: as for B1
B6: Phage-1346 (peptide)
peptide: TCSAGATYEWPRCL
notes: as for B1
B7: Phage-1349 (peptide)
peptide: TCSAGATWAWPLCF
notes: as for B1
B8: Phage-3898 (peptide)
peptide: ESQYCVPRWMCDGF
notes: tested as crude clonal phage supernatant
B9: Phage-3906 (peptide)
peptide: SDALCRPHWMCAGF
notes: as for B8
B10: Phage-3909 (peptide)
peptide: VMAVCQPEWMCSGM
notes: as for B8
B11: Phage-3899 (peptide)
peptide: FERVCVPAWMCAGF
notes: as for B8
B12: Phage-3903 (peptide)
peptide: LGPMCRPNWMCVGL
notes: as for B8
B13: Phage-3904 (peptide)
peptide: GYHLCIPEWMCSGL
notes: as for B8
B14: Phage-3901 (peptide)
peptide: YVMMCVPQWMCTAK
notes: as for B8
B15: Phage-3907 (peptide)
peptide: SLERCEPPWMCFGF
notes: as for B8
B16: Phage-3902 (peptide)
peptide: GHMYCSPLWMCEGF
notes: as for B8
B17: Phage-3900 (peptide)
peptide: GNDYCVPAWMCAGF
notes: as for B8
B18: Phage-3905 (peptide)
peptide: ADVLCRPHWMCAGF
notes: as for B8
B19: Phage-3910 (peptide)
peptide: VIPLCRPSWMCAAY
notes: as for B8
B20: Phage-3908 (peptide)
peptide: TERMCSPSWMCDGF
notes: as for B8
B21: Peptide-267 (peptide)
peptide: FTNYCVPSWMCTGF
notes: From the Peptide-180 optimisation phage library
B22: Peptide-277 (peptide)
peptide: VVIKCKPEWMCSGF
notes: as for B21
B23: Phage-1353 (peptide)
peptide: LCKPGVPYKWPTCL
notes: as for B1

Molecular target: T1, Anti-CD28 Fab (SEQ ID NOs: 696, 697)
T1 construct: In the phage ELISA the Fab was biotinylated and captured on neutravidin coated plates
Assay: phage binding ELISA; biotinylated anti-CD28 Fab on neutravidin plate, clonal phage supernatant, anti-M13 HRP

| Binder | Anti-CD28 Fab (SEQ ID NOs: 696, 697) signal |
| --- | --- |
| B1 | 1.92 |
| B2 | 1.9 |
| B3 | 1.68 |
| B4 | 1.78 |
| B5 | 1.16 |
| B6 | 1.84 |
| B7 | 2.31 |

Molecular target: T2, PSMA Fab (006 PSMA Fab)
T2 construct: also called Anti-PSMA Fab; anti-PSMA Fab
Assay: phage ELISA; PSMA Fab on plate pre-incubated with PSMA antigen as competitor, anti-M13 HRP detection;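 further: crude clonal phage supernatants added to Fab-coated wells still holding PSMA antigen in blocking buffer, with bound phage as read-out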

| Binder | Phage binding ELISA signal, Anti-PSMA Fab in presence of PSMA antigen |
| --- | --- |
| B8 | 0.0633 |
| B9 | 0.061 |
| B10 | 0.0731 |
| B11 | 0.0668 |
| B12 | 0.0797 |
| B13 | 0.0923 |
| B14 | 0.069 |
| B15 | 0.0697 |
| B16 | 0.131 |
| B17 | 0.0974 |
| B18 | 0.0581 |
| B19 | 0.116 |
| B20 | 0.0693 |

Molecular target: Ab-15
Assay: binding ELISA: biotinylated peptide on neutravidin plate, Ab-15 titrated

| Binder | EC50 [nM] |
| --- | --- |
| RDWCPRDLWVHCFA (cysteine pairing not given here; also: biotinylated, site not given here, CD28 peptide mask) [Peptide-53] | 14.6 |
| QDWCPRDLWVHCFA (cysteine pairing not given here; also: biotinylated, site not given here, CD28 peptide mask) [Peptide-56] | 25.7 |
| EDWCPRDLWVHCFA (cysteine pairing not given here; also: biotinylated, site not given here, CD28 peptide mask) [Peptide-57] | 32.8 |
| TDWCPRDLWVHCFA (cysteine pairing not given here; also: biotinylated, site not given here, CD28 peptide mask) [Peptide-66] | 24 |
| KDWCPRDLWVHCFA (cysteine pairing not given here; also: biotinylated, site not given here, CD28 peptide mask) [Peptide-62] | 19.7 |

Molecular target: T3, PSMA Fab
T3 construct: also called 006 PSMA Fab; anti-PSMA Fab
Assay: BLI (Octet); PSMA Fab on sensor-loaded biotinylated peptide, 1:1 model

| Binder | Off rate t1/2 [min] |
| --- | --- |
| B21 | 1.9 |
| B22 | 1.9 |

Molecular target: T4, Anti-PSMA Fab
T4 construct: Biotinylated and captured on neutravidin plates in the phage ELISA; also called 006 PSMA Fab
Assay: clonal phage ELISA; biotinylated anti-PSMA Fab on neutravidin plate; anti-M13 HRP detection; competitor: PSMA antigen pre-added

| Binder | Phage binding ELISA signal, Anti-PSMA Fab with PSMA antigen |
| --- | --- |
| HDYACVPKWMCEGL [Phage-3621] | 0.0818 |
| DDRVCRPDWMCNGF [Phage-3624] | 0.0665 |
| VHPMCTPLWMCVGF [Phage-3628] | 0.0993 |
| YMMKCIPEWMCTGL [Phage-3622] | 0.0662 |
| ADHMCVPQWMCSGF [Phage-3619] | 0.103 |
| IVKFCIPQWMCDGF [Phage-3623] | 0.147 |
| ELHLCIPSWMCTGL [Phage-3630] | 0.104 |
| DWVMCKPEWMCAGF [Phage-3625] | 0.0618 |
| LAVKCEPAWMCTGF [Phage-3627] | 0.0802 |
| DLMMCVPAWMCEGF [Phage-3629] | 0.0929 |
| VVAVCKPLWMCEAF [Phage-3618] | 0.062 |
| DERMCVPEWMCMGM [Phage-3620] | 0.0714 |
| AGYACVPSWMCEGF [Phage-3626] | 0.105 |

Molecular target: Ab-15
Assay: competition ELISA: peptide titrated against 1 nM Ab-15; competitor plate-bound CD28

| Binder | IC50 [nM] |
| --- | --- |
| RDWCPRDLWVHCFA (cysteine pairing not given here; also: biotinylated, site not given here, CD28 peptide mask) [Peptide-53] | 170 |
| QDWCPRDLWVHCFA (cysteine pairing not given here; also: biotinylated, site not given here, CD28 peptide mask) [Peptide-56] | 330 |
| EDWCPRDLWVHCFA (cysteine pairing not given here; also: biotinylated, site not given here, CD28 peptide mask) [Peptide-57] | 300 |
| TDWCPRDLWVHCFA (cysteine pairing not given here; also: biotinylated, site not given here, CD28 peptide mask) [Peptide-66] | 590 |
| KDWCPRDLWVHCFA (cysteine pairing not given here; also: biotinylated, site not given here, CD28 peptide mask) [Peptide-62] | 190 |

Molecular target: T2, PSMA Fab (006 PSMA Fab)
Assay: phage ELISA; biotinylated PSMA Fab on neutravidin plate, clonal phage supernatant, anti-M13 HRP detection;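 further: wells preincubated with PSMA antigen in blocking buffer or with blocking buffer only before clonal phage were added for a short incubation, then bound phage detected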

| Binder | Phage binding ELISA signal, Anti-PSMA Fab |
| --- | --- |
| B8 | 1.08 |
| B9 | 1.06 |
| B10 | 1.05 |
| B11 | 1.07 |
| B12 | 1.06 |
| B13 | 1.06 |
| B14 | 1.06 |
| B15 | 1.06 |
| B16 | 1.06 |
| B17 | 1.06 |
| B18 | 1.06 |
| B19 | 1.04 |
| B20 | 1.05 |

Molecular target: T4, Anti-PSMA Fab
Assay: clonal phage ELISA; biotinylated anti-PSMA Fab on neutravidin plate; anti-M13 HRP detection; no PSMA added

| Binder | Phage binding ELISA signal, Anti-PSMA Fab |
| --- | --- |
| HDYACVPKWMCEGL [Phage-3621] | 1.57 |
| DDRVCRPDWMCNGF [Phage-3624] | 1.56 |
| VHPMCTPLWMCVGF [Phage-3628] | 1.55 |
| YMMKCIPEWMCTGL [Phage-3622] | 1.56 |
| ADHMCVPQWMCSGF [Phage-3619] | 1.57 |
| IVKFCIPQWMCDGF [Phage-3623] | 1.56 |
| ELHLCIPSWMCTGL [Phage-3630] | 1.54 |
| DWVMCKPEWMCAGF [Phage-3625] | 1.55 |
| LAVKCEPAWMCTGF [Phage-3627] | 1.55 |
| DLMMCVPAWMCEGF [Phage-3629] | 1.55 |
| VVAVCKPLWMCEAF [Phage-3618] | 1.57 |
| DERMCVPEWMCMGM [Phage-3620] | 1.57 |
| AGYACVPSWMCEGF [Phage-3626] | 1.55 |

Molecular target: Ab-15
Assay: BLI (Octet): sensor loaded with 200 nM biotinylated peptide, 100 nM Ab-15;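 further: binding association and dissociation tracked in real time, fitted to a 1:1 binding model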

| Binder | Octet signal | t1/2 [min] |
| --- | --- | --- |
| RDWCPRDLWVHCFA (cysteine pairing not given here; also: biotinylated, site not given here, CD28 peptide mask) [Peptide-53] | 1.22 | 4.9 |
| QDWCPRDLWVHCFA (cysteine pairing not given here; also: biotinylated, site not given here, CD28 peptide mask) [Peptide-56] | 1.12 | 3.6 |
| EDWCPRDLWVHCFA (cysteine pairing not given here; also: biotinylated, site not given here, CD28 peptide mask) [Peptide-57] | 1.02 | 3 |
| TDWCPRDLWVHCFA (cysteine pairing not given here; also: biotinylated, site not given here, CD28 peptide mask) [Peptide-66] | 1.34 | 4.2 |
| KDWCPRDLWVHCFA (cysteine pairing not given here; also: biotinylated, site not given here, CD28 peptide mask) [Peptide-62] | 1.13 | 4 |

Molecular target: Ab-15
Assay: BLI (Octet): biotinylated peptide on sensor, Ab-15 titrated, 1:1 model

| Binder | Kd [nM] | t1/2 [min] |
| --- | --- | --- |
| RDWCPRDLWVHCFA (cysteine pairing not given here; also: biotinylated, site not given here, CD28 peptide mask) [Peptide-53] | 20.3 | 6.2 |
| QDWCPRDLWVHCFA (cysteine pairing not given here; also: biotinylated, site not given here, CD28 peptide mask) [Peptide-56] | 24.6 | 4.2 |
| EDWCPRDLWVHCFA (cysteine pairing not given here; also: biotinylated, site not given here, CD28 peptide mask) [Peptide-57] | 23.2 | 3.1 |
| TDWCPRDLWVHCFA (cysteine pairing not given here; also: biotinylated, site not given here, CD28 peptide mask) [Peptide-66] | 25.5 | 4.7 |
| KDWCPRDLWVHCFA (cysteine pairing not given here; also: biotinylated, site not given here, CD28 peptide mask) [Peptide-62] | 26.1 | 4.5 |

Molecular target: T1, Anti-CD28 Fab (SEQ ID NOs: 696, 697)
Assay: phage binding ELISA on captured anti-CD28 Fab; wells pre-incubated with CD28 antigen as competitor

| Binder | Anti-CD28 Fab signal in the presence of CD28 |
| --- | --- |
| B1 | 0.07 |
| B2 | 0.09 |
| B3 | 0.06 |
| B4 | 0.07 |
| B5 | 0.06 |
| B6 | 0.06 |
| B7 | 0.09 |
| B23 | 0.07 |
